Reference: the DeepSol protein solubility set

assay: soluble on expression in E. coli; label from the status in PepcDB or PDB records

Row | Sequence | soluble on expression in E. coli
1 | MTSKVGPVALKTFREKLGPELLEVFDKSYKSFTDVQVLSGTHLLNLSDVVVESPTGSGKTLAFVLPMMRMIQNAKLQPADIGALILSPSRELCSQIVSVIQPFAEKLNLTVETVTGGQKVDKNIKMFKNKNVNILVATPGRLFQIIQHEKTLIARKMRTLQLLVIDEADRFNEIQFEDHMREILSCIPKQRRTGLFSATQVKEEDDLMVFGLRNAKQVKVAQERNSAAPSTLKNYYVECRADEKTSVCLEFIRQRTDKKILIFFPSCNSVRYFYKIFERCLGKRPLFAVHGKCSNPHRASQIKAFSDSTNGVMISTDVMARGIDISDIDWVIQFDLPKHSSWFVHRAGRTARCGREGNALILIASEQLAYVNFLDNHEKVKLDEIKVPTNNSRKSEELRQKMIKIQVSDRAILEAGTRAFVSHVESYAKHDCHLICSLDDLNVVGLANSYALLRLPKMRELSQRKDLDMFDRSAIETSEIKYADVKLEANRETVMKEKHEKKVETLAAKDKKRREKEARKLKKMGGRFRNGGGTGRKAEEKKALKRKAEEEDDAQNDIRLLKRIKRGKLSKKEIKDVL | not soluble
2 | MREWKIIDSTLREGEQFEKANFSTQDKVEIAKALDEFGIEYIEVTTPVASPQSRKDAEVLASLGLKAKVVTHIQCRLDAAKVAVETGVQGIDLLFGTSKYLRAPHGRDIPRIIEEAKEVIAYIREAAPHVEVRFSAEDTFRSEEQDLLAVYEAVAPYVDRVGLADTVGVATPRQVYALVREVRRVVGPRVDIEFHGHNDTGCAIANAYEAIEAGATHVDTTILGIGERNGITPLGGFLARMYTLQPEYVRRKYKLEMLPELDRMVARMVGVEIPFNNYITGETAFSHKAGMHLKAIYINPEAYEPYPPEVFGVKRKLIIASRLTGRHAIKARAEELGLHYGEEELHRVTQHIKALADRGQLTLEELDRILREWITAHHHHHH | soluble
3 | SEEASTGTMVLLWAGGFQKVGGEQVSPLTGEVTRHRDRNIPYNLPVPSHPSNWVPLAAEVGPDSCDCGGPAPGLLLLLTRPHDPQFTVPSGWGRQLCPGHALLDEPLLPETGGHPVCERVGHPAPSGPPDLLGLAAGHVLCRVRHDTPVRIPGTGSGCVCTHPAVQWQADLLPHLTLWPNPGQGTVRTSVRNSGHTEEQQVGLS | soluble
4 | MPNDLKKELRELKETLEYLKKSFEVISQLAQAYIRLLNVYAEYGDLGIDVVIPEIKHDPIARDIVKILFDLRRANVSQIARELKGRRGKASRNTVRKKLKELEKLGVVKEVPGERGSVYTLSREVVKKWLDLIGIPINLLLEHHHHHH | soluble
5 | MAHLKKRNRLKKNEDFQKVFKHGTSVANRQFVLYTLDQPENDELRVGLSVSKKIGNAVMRNRIKRLIRQAFLEEKERLKEKDYIIIARKPASQLTYEETKKSLQHLFRKSSLYKKSSSK | soluble
6 | MPTPPVSVLVAQMGEGPAPLYARVKQMIIQQIDNGSWPPHHRVPSESELVNELGFSRMTINRALRELTAEGLLVRMQGVGTFVAEPKGRSALFEVNNIADEIAARGHQHSCQVITLAEEAAGSERALALDMREGQRVFHSLIVHFENGVPVQIEDRYVNAAIAPDYLKQDFTRQTPYAYLSQVAPLTEGEHVVEAILAEPEECTLLQIDRGEPCLLIRRRTWSGRQPVTAARLIHPGSRHRLEGRFSK | not soluble
7 | MTIFRPGLLTTIQDLGRTGYLKYGVIVSGPMDEYAHRMANLLVGNDEKAALLEMTFIGPTIQFTSDQLIAMTGGDLSPTIDGHSVPMYRPVFVKKGAVLSFGRCKTGCRSYLAIGGGIDVPKVMNSRSTYLRAKIGGFQGRALVEGDELICGAPPEQTERLVKTCQKGIVHSFATTKWSVVSSQRSRDGAEKVVRVTVGSHYEQFSEASQHKFFSETFQVTSKSDRMGYRLKGPTLERLEEQELISEPISVGTIQVPADGNPIILMADRQTTGGYPRIAHVIAVDLPIIAQAKPGAAIRFQQASLKEAERLYIRRAREFNELKTSIYLQTRLEHHHHHH | not soluble
8 | MGSDKIHHHHHHMSEDIFDAIIVGAGLAGSVAALVLAREGAQVLVIERGNSAGAKNVTGGRLYAHSLEHIIPGFADSAPVERLITHEKLAFMTEKSAMTMDYCNGDETSPSQRSYSVLRSKFDAWLMEQAEEAGAQLITGIRVDNLVQRDGKVVGVEADGDVIEAKTVILADGVNSILAEKLGMAKRVKPTDVAVGVKELIELPKSVIEDRFQLQGNQGAACLFAGSPTDGLMGGGFLYTNENTLSLGLVCGLHHLHDAKKSVPQMLEDFKQHPAVAPLIAGGKLVEYSAHVVPEAGINMLPELVGDGVLIAGDAAGMCMNLGFTIRGMDLAIAAGEAAAKTVLSAMKSDDFSKQKLAEYRQHLESGPLRDMRMYQKLPAFLDNPRMFSGYPELAVGVARDLFTIDGSAPELMRKKILRHGKKVGFINLIKDGMKGVTVL | not soluble
9 | MGSSHHHHHHGGTGENLYFQGGSGRPAGTLASFLERCSARKRGRGCVVLTGAGCSTESGIPDYRGPNGQYHRADFVLLTFQKFMRDDNEKRRYWARSMLGYSTMCGASCNAAHMALQAFTKSGAVAHILTQNVDGLHHLATYGGVGDAEEEHYYKYTTSDAPLKELHGNIHNVICTSCGFFMPRARLQRELRERNPGFYEQYGADVSRTRPDGDYSAPTEAVNAMHLVMCPRCNGFFKPHVVLFGENVPKPIVEATMSLVRDKASCLLCLGTSLQVYSAYRYVLQANQLGIPVAIVNAGTTRGDAIADLKLDVESVGSVLAETAHEMLGVPASMFFRRKTIQL | not soluble
10 | MGHHHHHHSHMGCDGGTIPKRHELVKGPKKVEKVDKDAELVAQWNYCTLSQEILRRPIVACELGRLYNKDAVIEFLLDKSAEKALGKAASHIKSIKNVTELKLSDNPAWEGDKGNTKGDKHDDLQRARFICPVVGLEMNGRHRFCFLRCCGCVFSERALKEIKAEVCHTCGAAFQEDDVIVLNGTKEDVDVLKTRMEERRLRANREKKTKKPKAAESVSKPDVSEEAPGPSKVKTGKPEEASLDSREKKTNLAPKSTAMNESSSGKAGKPPCGATKRSIADSEESEAYKSLFTTHSSAKRSKEESAHWVTHTSYCF | not soluble
11 | MGSDKIHHHHHHMETISQEKAIEAMPLEGAERTRFWRDPRFKGMECLSATFITHEFAPHAHDTFSIGAIEAGSQISTIKGERSQTGPGDLYLINPDEIHDGHPGHEGYRYRMVYPPTDLLVEILEDVTGRSFKGTPSFSRLLLTDRELALGFHRAHRALEGKVGTLEADESMFGFLARLFERHGNAIIVPLQTRESSAVHRARDYLVENYTHDIGLEELAKLAGLSRAHLIRAFRKEFHITPHAFLTDKRVREAKALLRRGWSAADTAYHCGFADQAHFSRHFKARTGVTPGAYRSA | not soluble
12 | MQEKSKMDCHGGISGTIYEYGALTIDGEEYIPFKQYAGKYVLFVNVASYGGLTGQYIELNALQEELAPFGLVILGFPCNQFGKQEPGENSEILPTLKYVRPGGGFVPNFQLFEKGDVNGEKEQKFYTFLKNSCPPTSELLGTSDRLFWEPMKVHDIRWNFEKFLVGPDGIPIMRWHHRTTVSNVKMDILSYMRRQAALGVAENLYFQ | soluble
13 | MQHYLHIRPAPSDNLPLVDLIEHPDPIFDPKEKDLNETLLRSLLGGHYDPGFMATSPPEDRPGGGGGAAGGAEDLAELDQLLRQRPSGAMPSEIKGLEFSEGLAQGKKQRLSKKLRRKLQMWLWSQTFCPVLYAWNDLGSRFWPRYVKVGSCFSKRSCSVPEGMVCKPSKSVHLTVLRWRCQRRGGQRCGWIPIQYPIISECKCSC | soluble
14 | AAKHHFDEIHYLDIVDCNGGDHHKAFATNFNPEINIREITQKGKYWENGRWIETEPQEIHKTLTYPSIGERESYLLYHEELESLVKNFPTIKRARFWMTFGQEYLTHLRVMQNIGMTRIDPIMYNGVEIVPIQFLKAVLPNPGDLGENYTGETSIGCRIRGIRDGKERTYYIWNNCSHEVAYKETGTQG | not soluble
15 | MWSEYSLEVVDAVARNGSFSAAAQELHRVPSAVSYTVRQLEEWLAVPLFERRHRDVELTPAGVWFLQEGRSVIKKMQITRQQCQQIANGWRGQLSIAVDDIVKPARMRQMIVDFYRHFPDVELIVFQEVFNGVWDALADGRVELAIGATRSIPVGGRYAFRDMGMLSWDCVVASDHPLAKMEGPLSDDVLRNWPSLVREDTSRSLPKRTTWLLDNQKRVVVPDWESSATCLSAGLCVGMVPSHFARPWIDRGEWTALALENPFPDAACCLTWQQNDASPALNWMLDYLGDSDTLNREWLRAPERSAPARCLNDDNRQTGHPLPSGAQPDGGALR | not soluble
16 | MSGNTVKLNVGGTVFETLKSTLTKHDGFFKALIETDVPAEKDDSNCFFIDRSPKHFETVLNYMRSGDVVLPDSKKDMLELKKEAEYYLLSNLAKLCQPPTDNFKTCTPEELMRVVANTDKKVIMINYLTYNGELVFYPWGFNLVHFLIQNRDYVEDVYFRRTESQYPEDGPFPNEKPYWTFLVYNSTRSGRRPFRHTVDLEDCMGHM | not soluble
17 | MSAVFGAKYTLRFGHVLAPGEPYHQAFLKWAKAVEEKTNGDVRIEVFPSSQLGVEEDIIEQIRMGAPVGWNTDSARLGMYVKDIGVMNLAYFIDFMGAKTPEEAIEVLKKIKQSPTMQKWLKELEQRFGIKVLSFYWVQGYRHFVTNKPIRKPEDLNGLRIRTPGAPAWQESIRSLGAIPVAVNFGEIYTAVQTRAVDGAELTYANVYNGGLYEVLKYMSETGHFLLINFEIVSADWFNSLPKEYQKIIEEEMDKAGIEVSLKIMKELEEEYKQKCIEKGMAVIPASEIDKEAFMEKAKQAYKNLGLENALNQLIKEVKGEHHHHHH | soluble
18 | MLERIANIQKKLSKSIVERKINEVRKVAAVDVSYKEEKARAALVITTFPEGEVLKTKVIETTVSFPYIPTFFFLRETKPILIATKGETFDVLIVEGHGKAHPRGYGLASHIGVVLRKPTIGVAKRLLKNTPKDTYKKVGKVYVSVGNLITLEDATKIIRAILDESGYPKPLKLADKLSKGRIYEVKNTPSPNRSRKKRGNRGKDNNNSQGNLEHHHHHH | soluble
19 | MGSDKIHHHHHHMTQDLAQFAAERGIKYFMISYTDLFGAQRAKLVPAQAIADMQKDGAGFAGFATWLDLTPAHPDLFAVPDASSVIQLPWKKDVAWVAADCVMDDKPVEQAPRVMLKKLVDEAASMGLRVKTGVEPEFFLISADGKTISDEFDTAEKPCYDQQALMRRYDVIAEICDHMLELGWKPYQNDHEDANGQFEMNWEYDDALKTADKHSFFKFMVKSVAEKHGLRATFMPKPFKGLTGNGCHAHISVWDNDGKVNAFADKAMPFGLSAKGKTFLGGIMKHASALAAVTNPTVNSYKRINAPRTVSGATWAPNTVTWTGNNRTHMVRVPGPGRFELRLPDGAVNPYLLQAIIIAAGLSGLKTNADPGPHYDIDMYREGHTVTDAPKLPLNLLDALRAYEADTELQQALGEEFSAAYLKLKHGEWTSYCSQFTPWEHQTTLDI | not soluble
